Experimental data from publication PMC8244302, “Shotgun EM of mycobacterial protein complexes during stationary phase stress” (Current Research in Structural Biology, 2020).

Tests used:
[1] = target: the molecule itself; assay: negative stain EM single-particle reconstruction; partially fractionated late stationary phase Msm lysate (anion exchange or sucrose cushion, >100 kDa cut-off), 2% uranyl acetate, Relion 3.1; symmetry imposed from 2D classes; C3 symmetry for encapsulin with cargo
[2] = target: T1, Msm encapsulin (MSMEG_5830) (M. smegmatis (endogenous in Msm groELΔC), UniProt A0R4H0 1-265); assay: as above; conditions: partners not purified
T1 construct: encapsulin of Mycobacterium smegmatis, locus MSMEG_5830; Reconstructed with icosahedral symmetry; also called complex 001; encapsulin nanocompartment; source: endogenous, M. smegmatis groELΔC late stationary phase lysate, partially fractionated (anion exchange, >100 kDa cut-off; gel filtration); also solubilised membrane fraction
T1 sequence (looked up): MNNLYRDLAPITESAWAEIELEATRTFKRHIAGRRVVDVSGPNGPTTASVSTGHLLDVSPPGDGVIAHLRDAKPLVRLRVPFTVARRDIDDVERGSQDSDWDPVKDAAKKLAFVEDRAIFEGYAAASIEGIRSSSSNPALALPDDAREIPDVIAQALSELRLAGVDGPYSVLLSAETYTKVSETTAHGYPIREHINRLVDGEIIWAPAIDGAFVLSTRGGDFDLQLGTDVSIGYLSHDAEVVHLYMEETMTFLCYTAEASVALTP

B1: Msm dye-decolourising type peroxidase (MSMEG_5829) (enzyme, M. smegmatis (endogenous in Msm groELΔC), UniProt A0R4G9 1-343, looked up)
chain: MPAPQPQPVLAPLTPAAVFLVATIDEGQEATVYDALPDISGLVRAIGFRDPAKRLSAITSIGSDAWDRLFSGPRPAELHPFREIDGGRHHAPATPGDLLFHLRAESMDVCFELATKLVEAMSGAITIVDETHGFRFFDNRDLMGFVDGTENPDGNLAVVATQIGDEDPDFAGGCYVHVQKYLHDMASWNSLSVEEQERVIGRTKLDDIELDDDVKPANSHVALNVIEDEDGNELKIIRHNMPFGEIGKGEFGTYYIGYSRTPSVTERMLDNMFIGDPPGNTDRILDFSTAITGGLFFTPTVDFLDDPPPLPSEDDRAEPASAPSADPVHTDGSLGIGSLKGTR
notes: dye-decolourising type peroxidase of Mycobacterium smegmatis, locus MSMEG_5829; Interpreted as a D3 hexamer from the cargo density in the C3 map; also called DyP; DyP type peroxidase; source: endogenous, M. smegmatis groELΔC late stationary phase lysate, partially fractionated, enclosed in encapsulin; also solubilised membrane fraction
- stoichiometry N [1]: 6 subunits
- stoichiometry N [2]: 10 encapsulin subunits per DyP subunit
